The source of these data is patent publication US10434088B2, “Methods related to administering immunosuppressants and therapeutic macromolecules at a reduced pharmacodynamically effective dose” (Selecta Biosciences, Inc., priority 2013, dated 2019).

The subject of assay [1] is anti-OVA antibody (Ab) response. Nature of the assay: Example 2: anti-OVA antibody response to aggOVA. It counts as in vivo, C57BL/6 mice. To be noted: 25 μg aggOVA i.v. d0, 14, 28 then boosts; nanocarriers i.v. (100 μg rapamycin) concomitantly d0, 14, 28 only; days 25, 40 and next 60 days; FIG. 3.
The test system of assay [2] is anti-OVA IgG antibody response. The experiment in a line: Example 9: anti-OVA IgG antibody titers. The format is in vivo, C57BL/6. To be noted: 2.5 μg pOVA i.v. weekly; 0.2 mg nanocarrier admixed days 0, 7, 14; FIG. 11. Here is the method:
The control group of C57BL/6 age-matched (5-6 weeks) female were injected i.v. in the tail vein with 2.5 μg of an immunogenic form of particulate Ovalbumin (pOVA) and 2 μg of Keyhole Limpet Hemocyanin (KLH) s.c. in the hind limb once a week for 49 days (d0, 7, 14, 20, 28, 35, 42, 49).

B1: aggOVA: chicken ovalbumin induced using high sheer to form aggregates to increase its immunogenicity (protein, UniProt P01012 2-386, looked up)
Ovalbumin: GSIGAASMEFCFDVFKELKVHHANENIFYCPIAIMSALAMVYLGAKDSTRTQINKVVRFDKLPGFGDSIEAQCGTSVNVHSSLRDILNQITKPNDVYSFSLASRLYAEERYPILPEYLQCVKELYRGGLEPINFQTAADQARELINSWVESQTNGIIRNVLQPSSVDSQTAMVLVNAIVFKGLWEKAFKDEDTQAMPFRVTEQESKPVQMMYQIGLFRVASMASEKMKILELPFASGTMSMLVLLPDEVSGLEQLESIINFEKLTEWTSSNVMEERKIKVYLPRMKMEEKYNLTSVLMAMGITDVFSSSANLSGISSAESLKISQAVHAAHAEINEAGREVVGSAEAGVDAASVSEEFRADHPFLFCIKHIATNAVLFFGRCVSP
modifications: shear-induced aggregates
For the molecule B1, in assay [1], the “anti-OVA antibody (IgG) response” value is “prominent anti-OVA antibody (Ab) response”.

B2: pOVA: immunogenic form of particulate Ovalbumin (protein, UniProt P01012 2-386, looked up)
Ovalbumin: B1 Ovalbumin
modifications: particulate form
notes: immunogenic form of particulate Ovalbumin
In the case of B2, the “anti-OVA IgG antibody titers at day 54” value in assay [2] is given as “robust immune response”.
